# Measured values from patent US20180155451A1 (published 2018).
# Substitutions are numbered along the chain they refer to. Names may count otherwise.
# T1: FcgRIIb (human, UniProt P31994 43-217)
# T1 construct: extracellular domain; Soluble extracellular domain with C-terminal His tag; also called FcγRIIb; CD32B; not shown: His tag attached to the C terminus
# T1 sequence (looked up): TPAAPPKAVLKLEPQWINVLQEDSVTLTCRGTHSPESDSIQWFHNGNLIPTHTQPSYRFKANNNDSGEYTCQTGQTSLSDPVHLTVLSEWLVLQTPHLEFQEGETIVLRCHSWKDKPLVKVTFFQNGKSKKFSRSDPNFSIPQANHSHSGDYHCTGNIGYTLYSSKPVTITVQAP
# T2: FcgRIIaH (human, UniProt P12318 34-217)
# T2 construct: extracellular domain; Soluble extracellular domain with C-terminal His tag; also called FcγRIIa H; FcγRIIa type H; not shown: His tag attached to the C terminus
# T2 sequence (looked up): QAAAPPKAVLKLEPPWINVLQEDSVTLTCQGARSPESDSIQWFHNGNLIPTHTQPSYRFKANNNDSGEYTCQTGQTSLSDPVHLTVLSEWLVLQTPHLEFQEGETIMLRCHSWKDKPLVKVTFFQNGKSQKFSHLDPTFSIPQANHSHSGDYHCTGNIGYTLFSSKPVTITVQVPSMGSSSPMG
# T3: FcgRIIaR (human, UniProt P12318 34-217)
# T3 construct: extracellular domain; Soluble extracellular domain with C-terminal His tag; also called FcγRIIa R; FcγRIIa type R; not shown: His tag attached to the C terminus
# T3 sequence (looked up): T2 sequence (looked up) with H134R
# T4: FcγRIIa H (FcγRIIa, allotype with His at position 131), extracellular domain with C-terminal His tag (human, UniProt P12318 34-217)
# T4 construct: extracellular domain; Soluble receptor expressed in FreeStyle293 cells and used as the analyte in Biacore; also called FcgRIIa H; FcγRIIa type H; not shown: His tag attached to the C terminus
# T4 sequence (looked up): T2 sequence (looked up)
# B1: H240-Kn172/H240-Hl177/L73-k0 (antibody, human IgG1, kappa)
# heavy 1: QDQLVQSGAEVKKPGASVKVSCKASGFNIKDTYIQWVRQAPGQGLEWMGRIDPLRKQTKYREKFEGRVTITADTSTNTAYMELSSLRSEDTAVYYCVRSGREFDYWGQGTLVTVSSASTKGPSVFPLAPSSKSTSGGTAALGCLVKDYFPEPVTVSWNSGALTSGVHTFPAVLQSSGLYSLSSVVTVPSSSLGTQTYICNVNHKPSNTKVDKKVEPKSCDKTHTCPPCPAPEYYWGPMVFLFPPKPKDTLMISRTPEVTCVVVDVSDEDPEVKFNWYVDGVEVHNAKTKPREEQYNATYRVVSVLTVLHQDWLNGKEYKCKVSNKDLPAPMEKTISKAKGQPREPQVCTLPPSRDELTKNQVSLWCLVKGFYPSDIAVEWESNGQPENNYKTTPPVLDSDGSFFLYSKLTVDKSRWQQGNVFSCSVMHEALHNHYTQKSLSLSP
# heavy 2: QDQLVQSGAEVKKPGASVKVSCKASGFNIKDTYIQWVRQAPGQGLEWMGRIDPLRKQTKYREKFEGRVTITADTSTNTAYMELSSLRSEDTAVYYCVRSGREFDYWGQGTLVTVSSASTKGPSVFPLAPSSKSTSGGTAALGCLVKDYFPEPVTVSWNSGALTSGVHTFPAVLQSSGLYSLSSVVTVPSSSLGTQTYICNVNHKPSNTKVDKKVEPKSCDKTHTCPPCPAPELLGGPSVFLFPPKPKDTLMISRTPEVTCVVVDVSHEEPEVKFNWYVDGVEVHNAKTKPREEQYNSTYRVVSVLTVLHQDWLNGKEYKCKVSNDALPKPQEETISKAKGQPREPQVYTLPPSRCELTKNQVSLSCAVKGFYPSDIAVEWESNGQPENNYKTTPPVLDSDGSFFLVSKLTVDKSRWQQGNVFSCSVMHEALHNHYTQKSLSLSP
# light: DIQMTQSPSSLSASVGDRVTITCRASQDIHKYIAWYQQKPGQAPRLLIQYTSTLQPGVPSRFSGSGSGTDYTFTISSLQPEDIATYYCLQYEQLRTFGGGTKVEIKRTVAAPSVFIFPPSDEQLKSGTASVVCLLNNFYPREAKVQWKVDNALQSGNSQESVTEQDSKDSTYSLSSTLTLSKADYEKHKVYACEVTHQGLSSPVTKSFNRGEC
# notes: Heterodimerized anti-epiregulin IgG1 antibody; I332M introduced into H240-Kn120 and I332Q into H240-Hl068; also called H240-Kn172/H240-HI177/L73-k0
# B2: H240-Kn173/H240-Hl068/L73-k0 (antibody, human IgG1, kappa)
# heavy 1: B1 heavy 1 with M331Q
# heavy 2: B1 heavy 2 with Q331I
# light: B1 light
# notes: Heterodimerized anti-epiregulin IgG1 antibody; I332Q introduced into H240-Kn120; also called H240-Kn173/H240-HI068/L73-k0
# B3: H240-Kn178/H240-Hl068/L73-k0 (antibody, human IgG1, kappa)
# heavy 1: B1 heavy 1 with M331I, K333Y
# heavy 2: B1 heavy 2 with Q331I
# light: B1 light
# notes: Heterodimerized anti-epiregulin IgG1 antibody; K334Y introduced into H240-Kn120; also called H240-Kn178/H240-HI068/L73-k0
# B4: GpH7-B3 variant T335_02A/GpL16-k0 (homodimerized antibody, Ho Ab) (antibody, human IgG1, kappa)
# heavy: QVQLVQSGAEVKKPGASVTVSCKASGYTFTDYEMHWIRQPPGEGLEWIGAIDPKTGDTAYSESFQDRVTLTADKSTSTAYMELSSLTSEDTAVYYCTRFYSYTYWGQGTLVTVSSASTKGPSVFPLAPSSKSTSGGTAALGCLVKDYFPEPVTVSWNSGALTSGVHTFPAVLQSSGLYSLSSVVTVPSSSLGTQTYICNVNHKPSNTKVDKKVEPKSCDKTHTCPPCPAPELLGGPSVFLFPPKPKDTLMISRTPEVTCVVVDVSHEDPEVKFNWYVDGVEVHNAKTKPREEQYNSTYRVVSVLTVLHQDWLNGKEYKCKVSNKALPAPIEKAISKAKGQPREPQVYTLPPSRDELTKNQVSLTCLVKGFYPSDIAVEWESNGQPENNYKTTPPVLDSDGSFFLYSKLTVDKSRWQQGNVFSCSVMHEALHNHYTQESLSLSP
# light: DIVMTQSPLSLPVTPGEPASISCQASESLVHSNRNTYLHWYLQKPGQSPQLLIYKVSNRFSGVPDRFSGSGSGTDFTLKISRVEAEDVGVYYCSQNTHVPPTFGQGTKVEIERTVAAPSVFIFPPSDEQLKSGTASVVCLLNNFYPREAKVQWKVDNALQSGNSQESVTEQDSKDSTYSLSSTLTLSKADYEKHKVYACEVTHQGLSSPVTKSFNRGEC
# notes: Anti-glypican-3 IgG1 (G1d with K439E = GpH7-B3); the substitution stands in both H chains; also called Ho Ab T335A
# B5: GpH7-B3 variant T335_09D/GpL16-k0 (homodimerized antibody, Ho Ab) (antibody, human IgG1, kappa)
# heavy: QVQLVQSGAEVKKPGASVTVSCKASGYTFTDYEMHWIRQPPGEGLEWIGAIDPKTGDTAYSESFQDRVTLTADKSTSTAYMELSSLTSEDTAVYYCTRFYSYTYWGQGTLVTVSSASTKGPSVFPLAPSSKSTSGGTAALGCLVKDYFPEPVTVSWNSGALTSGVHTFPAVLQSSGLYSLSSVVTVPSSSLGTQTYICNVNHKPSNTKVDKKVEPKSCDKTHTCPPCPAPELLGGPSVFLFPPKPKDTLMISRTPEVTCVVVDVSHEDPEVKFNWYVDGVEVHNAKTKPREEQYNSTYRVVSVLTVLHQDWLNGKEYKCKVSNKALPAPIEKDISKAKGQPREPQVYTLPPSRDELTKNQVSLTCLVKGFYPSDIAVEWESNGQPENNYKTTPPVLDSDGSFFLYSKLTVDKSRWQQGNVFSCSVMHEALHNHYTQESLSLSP
# light: B4 light
# notes: Anti-glypican-3 IgG1 (GpH7-B3 background); substitution in both H chains; Position is EU numbering; also called Ho Ab T335D
# B6: GpH7-B3 variant T335_08L/GpL16-k0 (homodimerized antibody, Ho Ab) (antibody, human IgG1, kappa)
# heavy: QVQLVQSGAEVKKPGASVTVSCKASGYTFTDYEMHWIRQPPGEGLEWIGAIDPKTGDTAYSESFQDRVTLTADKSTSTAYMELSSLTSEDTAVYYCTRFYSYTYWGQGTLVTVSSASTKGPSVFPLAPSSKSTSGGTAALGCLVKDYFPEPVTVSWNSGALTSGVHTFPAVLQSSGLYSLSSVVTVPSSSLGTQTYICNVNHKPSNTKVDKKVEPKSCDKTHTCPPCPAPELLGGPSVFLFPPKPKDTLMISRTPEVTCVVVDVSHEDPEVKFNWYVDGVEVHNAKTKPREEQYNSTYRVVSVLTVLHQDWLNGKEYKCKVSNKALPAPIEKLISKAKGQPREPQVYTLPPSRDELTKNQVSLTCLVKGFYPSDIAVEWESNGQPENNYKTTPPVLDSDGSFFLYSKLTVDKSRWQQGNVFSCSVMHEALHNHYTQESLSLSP
# light: B4 light
# notes: Anti-glypican-3 IgG1 (GpH7-B3 background); substitution in both H chains; Position is EU numbering; also called Ho Ab T335L
# B7: GpH7-B3 variant Y300_06M/GpL16-k0 (homodimerized antibody, Ho Ab) (antibody, human IgG1, kappa)
# heavy: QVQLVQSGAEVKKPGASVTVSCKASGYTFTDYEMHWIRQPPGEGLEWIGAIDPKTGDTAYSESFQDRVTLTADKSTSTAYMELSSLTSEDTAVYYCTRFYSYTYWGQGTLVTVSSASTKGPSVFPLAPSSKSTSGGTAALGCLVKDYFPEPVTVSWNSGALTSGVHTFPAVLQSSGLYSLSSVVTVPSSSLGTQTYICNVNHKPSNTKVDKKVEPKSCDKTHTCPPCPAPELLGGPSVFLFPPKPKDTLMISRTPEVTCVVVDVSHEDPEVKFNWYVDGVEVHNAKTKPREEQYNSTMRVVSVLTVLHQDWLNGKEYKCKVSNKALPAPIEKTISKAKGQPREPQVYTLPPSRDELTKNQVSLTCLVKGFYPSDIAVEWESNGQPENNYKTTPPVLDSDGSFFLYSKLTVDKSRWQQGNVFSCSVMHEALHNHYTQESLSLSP
# light: B4 light
# notes: Anti-glypican-3 IgG1 (GpH7-B3 background); substitution in both H chains; Position is EU numbering; also called Ho Ab Y300M
# B8: GpH7-B3 variant Y300_08L/GpL16-k0 (homodimerized antibody, Ho Ab) (antibody, human IgG1, kappa)
# heavy: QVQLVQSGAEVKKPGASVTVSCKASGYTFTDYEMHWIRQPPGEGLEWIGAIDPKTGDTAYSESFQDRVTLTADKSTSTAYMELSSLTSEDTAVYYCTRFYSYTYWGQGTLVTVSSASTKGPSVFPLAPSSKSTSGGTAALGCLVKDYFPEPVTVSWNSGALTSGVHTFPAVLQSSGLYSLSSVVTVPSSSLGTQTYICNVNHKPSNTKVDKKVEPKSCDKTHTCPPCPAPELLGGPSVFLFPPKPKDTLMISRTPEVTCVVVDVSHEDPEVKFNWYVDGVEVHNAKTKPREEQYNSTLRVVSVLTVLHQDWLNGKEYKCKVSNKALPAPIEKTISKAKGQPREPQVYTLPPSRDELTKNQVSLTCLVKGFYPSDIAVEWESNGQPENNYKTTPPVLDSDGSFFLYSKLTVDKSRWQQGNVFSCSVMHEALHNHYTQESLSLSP
# light: B4 light
# notes: Anti-glypican-3 IgG1 (GpH7-B3 background); substitution in both H chains; Position is EU numbering; also called Ho Ab Y300L
# B9: GpH7-B3 variant T335_06M/GpL16-k0 (homodimerized antibody, Ho Ab) (antibody, human IgG1, kappa)
# heavy: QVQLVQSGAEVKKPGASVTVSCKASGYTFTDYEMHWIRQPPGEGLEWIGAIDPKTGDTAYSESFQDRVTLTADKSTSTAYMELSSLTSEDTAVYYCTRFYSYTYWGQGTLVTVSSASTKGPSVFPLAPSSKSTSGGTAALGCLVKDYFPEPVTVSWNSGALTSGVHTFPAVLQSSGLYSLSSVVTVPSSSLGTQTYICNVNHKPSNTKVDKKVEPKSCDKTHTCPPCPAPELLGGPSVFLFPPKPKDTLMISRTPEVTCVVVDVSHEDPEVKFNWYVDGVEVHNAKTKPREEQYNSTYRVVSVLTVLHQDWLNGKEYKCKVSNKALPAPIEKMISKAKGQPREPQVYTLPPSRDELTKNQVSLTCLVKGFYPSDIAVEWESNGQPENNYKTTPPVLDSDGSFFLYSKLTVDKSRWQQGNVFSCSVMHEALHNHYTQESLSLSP
# light: B4 light
# notes: Anti-glypican-3 IgG1 (GpH7-B3 background); substitution in both H chains; Position is EU numbering; also called Ho Ab T335M
# B10: GpH7-B3 variant Y300_07I/GpL16-k0 (homodimerized antibody, Ho Ab) (antibody, human IgG1, kappa)
# heavy: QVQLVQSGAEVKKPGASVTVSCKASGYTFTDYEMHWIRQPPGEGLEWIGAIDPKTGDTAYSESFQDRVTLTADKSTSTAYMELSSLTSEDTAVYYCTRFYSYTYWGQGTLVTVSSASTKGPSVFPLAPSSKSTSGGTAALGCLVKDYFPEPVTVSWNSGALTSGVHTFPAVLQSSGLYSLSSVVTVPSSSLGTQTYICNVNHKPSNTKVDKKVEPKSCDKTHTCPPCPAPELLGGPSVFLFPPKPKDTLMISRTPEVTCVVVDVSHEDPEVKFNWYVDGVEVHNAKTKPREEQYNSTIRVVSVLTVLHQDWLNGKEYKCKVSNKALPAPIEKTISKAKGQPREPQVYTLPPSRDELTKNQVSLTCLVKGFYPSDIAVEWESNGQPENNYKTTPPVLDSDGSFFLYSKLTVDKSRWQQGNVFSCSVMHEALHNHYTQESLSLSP
# light: B4 light
# notes: Anti-glypican-3 IgG1 (GpH7-B3 background); substitution in both H chains; Position is EU numbering; also called Ho Ab Y300I
# B11: GpH7-B3 variant T335_04F/GpL16-k0 (homodimerized antibody, Ho Ab) (antibody, human IgG1, kappa)
# heavy: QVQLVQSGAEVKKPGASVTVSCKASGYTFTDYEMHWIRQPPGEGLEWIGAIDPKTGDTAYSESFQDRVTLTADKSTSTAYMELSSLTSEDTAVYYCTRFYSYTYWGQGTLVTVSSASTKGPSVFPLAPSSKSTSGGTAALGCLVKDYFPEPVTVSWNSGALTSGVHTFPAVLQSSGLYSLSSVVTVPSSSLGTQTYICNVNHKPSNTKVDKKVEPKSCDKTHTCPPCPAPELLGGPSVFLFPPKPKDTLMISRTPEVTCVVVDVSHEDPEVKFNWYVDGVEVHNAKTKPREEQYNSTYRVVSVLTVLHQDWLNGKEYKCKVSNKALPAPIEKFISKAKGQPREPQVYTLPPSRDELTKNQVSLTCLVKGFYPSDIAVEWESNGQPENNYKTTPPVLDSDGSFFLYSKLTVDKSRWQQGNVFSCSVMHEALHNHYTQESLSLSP
# light: B4 light
# notes: Anti-glypican-3 IgG1 (GpH7-B3 background); substitution in both H chains; Position is EU numbering; also called Ho Ab T335F
# B12: GpH7-B3 variant T335_05P/GpL16-k0 (homodimerized antibody, Ho Ab) (antibody, human IgG1, kappa)
# heavy: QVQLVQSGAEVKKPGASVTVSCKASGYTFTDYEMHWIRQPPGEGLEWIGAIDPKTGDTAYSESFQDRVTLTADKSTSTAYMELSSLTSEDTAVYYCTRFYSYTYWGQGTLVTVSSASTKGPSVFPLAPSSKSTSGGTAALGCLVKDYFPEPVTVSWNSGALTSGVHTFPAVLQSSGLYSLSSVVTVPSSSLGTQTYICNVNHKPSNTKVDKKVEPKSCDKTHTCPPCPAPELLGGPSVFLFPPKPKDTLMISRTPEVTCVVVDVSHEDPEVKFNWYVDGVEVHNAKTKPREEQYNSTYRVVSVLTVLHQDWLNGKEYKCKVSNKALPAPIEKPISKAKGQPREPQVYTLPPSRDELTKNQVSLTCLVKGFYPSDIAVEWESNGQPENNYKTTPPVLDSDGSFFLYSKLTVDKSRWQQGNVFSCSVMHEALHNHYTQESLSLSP
# light: B4 light
# notes: Anti-glypican-3 IgG1 (GpH7-B3 background); substitution in both H chains; Position is EU numbering; also called Ho Ab T335P
# Biological target: T5, FcgRIa (human, UniProt P12314 16-292)
# T5 construct: extracellular domain; Soluble extracellular domain with C-terminal His tag, expressed in FreeStyle293 cells; also called FcγRIa; FcγRI; not shown: His tag attached to the C terminus
# T5 sequence (P12314 16-292): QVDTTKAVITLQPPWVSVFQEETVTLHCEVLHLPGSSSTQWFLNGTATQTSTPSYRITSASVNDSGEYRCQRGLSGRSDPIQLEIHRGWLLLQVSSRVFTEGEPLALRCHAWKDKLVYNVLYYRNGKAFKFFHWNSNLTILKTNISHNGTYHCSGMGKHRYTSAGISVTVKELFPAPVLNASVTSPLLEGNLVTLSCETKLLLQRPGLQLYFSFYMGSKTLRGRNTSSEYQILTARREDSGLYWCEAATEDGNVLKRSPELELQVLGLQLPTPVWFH
# Assay: SPR (Biacore), antibody captured, FcgR as analyte
# Method: (§1) Analysis of interaction between obj ective antibody and the FcγR was carried out using Biacore T100 (GE Healthcare), Biacore T200, Biacore A100, and Biacore 4000. HBS-EP+ (GE Healthcare) was used as the running buffer, and the measurement temperature was set to 25° C. Chips produced by immobilizing the antigen peptide by the amine coupling method to a Series S sensor Chip CM5 (GE Healthcare), chips produced by allowing preliminarily biotinylated antigen peptides to interact with and immobilize onto a Series S Sensor Chip SA (certified) (GE Healthcare), chips produced by immobilizing Protein L (ACTIGEN, BioVision) to Series S Sencor Chip CM5 (GE Healthcare), or chips produced by immobilizing Protein A/G (Thermo Scientific) to Series S Sencor Chip CM5 (GE Healthcare) were used. Antibodies of interest were captured onto these chips, and allowed to interact to each FcγR diluted with running buffer. To regenerate and repeatedly use the chip, the antibodies captured onto the chip were washed off by reacting 10 mM glycine-HCl, pH 1.5.
row,Binder,Kd
1,B1,0.25 nM
2,B2,0.12 nM
3,B3,0.23 nM

# Biological target: T1, FcgRIIb
# Assay: SPR (Biacore), antibody captured, FcgR as analyte
# Method: as §1
row,Binder,Kd
1,B1,160 nM
2,B2,280 nM
3,B3,110 nM

# Biological target: T6, FcgRIIIaF (human, UniProt P08637 17-208)
# T6 construct: extracellular domain; Soluble extracellular domain with C-terminal His tag; polymorphic site made after J. Clin. Invest; also called FcγRIIIa F; not shown: His tag attached to the C terminus
# T6 sequence (P08637 17-208): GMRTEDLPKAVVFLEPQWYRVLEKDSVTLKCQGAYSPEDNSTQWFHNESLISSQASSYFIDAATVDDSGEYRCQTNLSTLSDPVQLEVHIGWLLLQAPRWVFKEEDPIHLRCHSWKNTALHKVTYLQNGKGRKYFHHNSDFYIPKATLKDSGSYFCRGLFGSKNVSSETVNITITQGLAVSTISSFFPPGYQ
# Assay: SPR (Biacore), antibody captured, FcgR as analyte
# Method: as §1
row,Binder,Kd
1,B1,2 nM
2,B2,1.8 nM
3,B3,1.4 nM

# Biological target: T2, FcgRIIaH
# Assay: SPR (Biacore), antibody captured, FcgR as analyte
# Method: as §1
row,Binder,Kd
1,B1,57 nM
2,B2,57 nM
3,B3,65 nM

# Biological target: T7, FcgRIIIaV (human, UniProt P08637 17-208)
# T7 construct: extracellular domain; Soluble extracellular domain with C-terminal His tag; polymorphic site made after J. Clin. Invest; also called FcγRIIIa V; not shown: His tag attached to the C terminus
# T7 sequence (P08637 17-208 F176V limits assumed): as the sequence (P08637 17-208) above, with F160V counted along it
# Assay: SPR (Biacore), antibody captured, FcgR as analyte
# Method: as §1
row,Binder,Kd
1,B1,0.22 nM
2,B2,0.4 nM
3,B3,0.19 nM

# Biological target: T3, FcgRIIaR
# Assay: SPR (Biacore), antibody captured, FcgR as analyte
# Method: as §1
row,Binder,Kd
1,B1,29 nM
2,B2,40 nM
3,B3,26 nM

# Biological target: T4, FcγRIIa H (FcγRIIa, allotype with His …)
# Assay: SPR (Biacore T100), antibody captured on antigen-peptide chip, FcγRIIa H as analyte; response per captured antibody relative to GpH7-B3/GpL16-k0
# Method: Analysis of interaction between objective antibody and the FcγR was carried out using Biacore T100 (GE Healthcare). HBS-EP+ (GE Healthcare) was used as the running buffer, and the measurement temperature was set to 25° C. Chips produced by immobilizing the antigen peptide by the amine coupling method to a Series S Sencor Chip CM5 (GE Healthcare), or alternatively, chips produced by allowing preliminarily biotinylated antigen peptides to interact with and immobilize onto a Series S Sensor Chip SA (certified) (GE Healthcare) were used. Antibodies of interest were captured onto an antigen peptide-immobilized chip, and allowed to interact to each FcγR diluted with running buffer. To regenerate and repeatedly use the chip, the antibodies captured on the chip were washed off by reacting 10 mM glycine-HCl, pH 1.5.
row,Binder,Ho/Con_2aH
1,B4,103 relative binding activity (control homodimerized antibody GpH7-B3/GpL16-k0 = 100)
2,B5,110 relative binding activity (control homodimerized antibody GpH7-B3/GpL16-k0 = 100)
3,B6,106 relative binding activity (control homodimerized antibody GpH7-B3/GpL16-k0 = 100)
4,B7,106 relative binding activity (control homodimerized antibody GpH7-B3/GpL16-k0 = 100)
5,B8,115 relative binding activity (control homodimerized antibody GpH7-B3/GpL16-k0 = 100)
6,B9,106 relative binding activity (control homodimerized antibody GpH7-B3/GpL16-k0 = 100)
7,B10,122 relative binding activity (control homodimerized antibody GpH7-B3/GpL16-k0 = 100)
8,B11,104 relative binding activity (control homodimerized antibody GpH7-B3/GpL16-k0 = 100)
9,B12,115 relative binding activity (control homodimerized antibody GpH7-B3/GpL16-k0 = 100)

# Biological target: T5, FcgRIa
# Assay: SPR (Biacore); KD of H240-Kn120/H240-Hl068/L73-k0 divided by KD of this antibody
# Method: (§2) Analysis of interaction between obj ective antibody and the FcγR was carried out using Biacore T100 (GE Healthcare), Biacore T200, Biacore A100, and Biacore 4000.
row,Binder,Relative KD
1,B1,0.6
2,B2,1.3
3,B3,0.7

# Biological target: T1, FcgRIIb
# Assay: as above
# Method: as §2
row,Binder,Relative KD
1,B1,0.9
2,B2,0.5
3,B3,1.4

# Biological target: T6, FcgRIIIaF
# Assay: as above
# Method: as §2
row,Binder,Relative KD
1,B1,1.1
2,B2,1.2
3,B3,1.6

# Biological target: T2, FcgRIIaH
# Assay: as above
# Method: as §2
row,Binder,Relative KD
1,B1,0.7
2,B2,0.7
3,B3,0.6

# Biological target: T7, FcgRIIIaV
# Assay: as above
# Method: as §2
row,Binder,Relative KD
1,B1,1.6
2,B2,0.9
3,B3,1.9

# Biological target: T3, FcgRIIaR
# Assay: as above
# Method: as §2
row,Binder,Relative KD
1,B1,0.7
2,B2,0.5
3,B3,0.8
